Sequences and labels used below:
B1: TPR t1 (parent)
chain: GACCAAUCUGCCCUCAGAGCUCGAGAACAUCUUCGGAUGCAGAGGAGGCAGGCUUCGGUGGCGCGAUAGCGCCAACGUCCUCAACCUCCAAUGCAUCCCACCACAUGAUGAUGCCUGAAGAGCCUUGGUUUUUUG

Variants of B1 are the subject of the data set. The data set is described as follows: polymerase ribozyme fitness, log enrichment relative to wild type (log ratio); higher = more active; in vitro selection for triplet polymerase activity. In a few lines: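 Mutant libraries of each subunit of a heterodimeric triplet polymerase ribozyme were built by PCR and transcribed. Each library went through one round of in vitro selection in triplicate: annealing with biotinylated primer, partner subunit and triplets, frozen incubation at −7 °C, gel excision of extended constructs, streptavidin-bead capture and RT-PCR. Input and output libraries were Illumina-sequenced; only genotypes with ≥10 input reads and ≥1 read per output were kept. Fitness is log2(genotype enrichment/wild-type enrichment), using inverse-variance-weighted replicate averages.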
GACCAAUCUGACCUCAGAGCUCGAGAACAUCUUCGGAUGCAGAGGAGGCAGGCUUCGGUGGCGCGAUAGCGCCAUCGUUCUCAAACUCCAAUGCAUCCCACCACAUGAUGAUGCCUGAAGAGCCUUGGUUUUUUG [C11A A75U C79U C85A]: the “polymerase ribozyme fitness (log ratio)” value was -2.71.
As for GACCAAUCUUCCCUCAGAGCUCGAGAACAUCUUCGGAUGCAGAGGAGGCAGGCUUCGGUGGCGCGAUAGCGCCAACGUCCUCAACCUCCAAUGCAUCCCACCACAAGAUGAUGCCUGAAGAGCCUUGGUUUUUUG [G10U U106A], the “polymerase ribozyme fitness (log ratio)” value came to 0.263.
The figure for GACCAAUCUGACCUCAGAGCUCGAGAACAUCUUCGGAUGCAGAGGAGGCAGGCUUCGGUGGCGCGAUAGCGCCAACGUCCUCAACCUCCAAUGCAUCCCACCACCUGAUGAUGCCUGAAGAGCCUUGGUUUUUUG [C11A A105C] is -3.07; for GACCAAUCUUCCCUCAGAGCUCGAGAACAUCUUCGGAUGCAGAGGAGGCAGGCUGCGGUGGCGCGAUAGCGCCAACGUCCUCAACCUCCAAUGCAUCCCACCACAUGAUGCUGCCUGAAGAGCCUUGGUUUUUUG [G10U U55G A111C] it is -0.134.
Take GACCAAUCUUCCCUCAGAGCUCGAGAACAUCUUCGGAUGCAGAGGAGGCAGGCUUCGGUGGCGCGAUAGCGCCAACGUCCUCAACCACCAACGCAUCCCACCACAUGAUGAUGCCUGAAGGGCCUUGGUUUCUUG [G10U U87A U92C A121G U132C]: the “polymerase ribozyme fitness (log ratio)” value was 1.22.
As for GACCAAUCUUCCCUCAGAGCUCGAGAACAUCUUCGGAUGCAGAGGAGGCAGGCUCCGGUGGCGCGAUAGCGCCAACGUCCUCAACCUCCAAUGCAUCCCACCACAUGAUGAUGCCUGAAGAGACUUGGUUUUUUG [G10U U55C C123A], the “polymerase ribozyme fitness (log ratio)” value amounted to 0.286.
As to GACCAAUCUUCCCUCAGAGCUCGAGAACAUCUUCGGAUGCAGAGGAGGCAGGCUUCGGUGGCGCGAUAGCGCCAACGUCCUCAACCUCCAAUGCAUCCCACCACAUGAUGAUGCCUGAAGAGCCUUGGCUUUUUG [G10U U129C], the “polymerase ribozyme fitness (log ratio)” value is -1.9.
The figure for GACCAAUCUGACCUCAGUGCACGAGAACAUCUUCGGAUGCAGAGGAGGCAGGCUUUGGUGGCGCGAUAGCGCCAACGUCCUCAACCUCCAAUGCAUCCCACCACAUGAUGAUGCCUGAAGAGCCUUGGUUUUUUG [C11A A18U U21A C56U] is -3.04; for GACCAAUCUGACCUUAGAGCUCGAGAACAUCUUCGGAUGCAGAUGAGGCAGGCUUCGGUGGCGCGAUAGCGACAACGUCCUCAACCUCCAAUGCAUCCCACCACAUGAUGAUGCCUGAAGAGCCUUGGAUUCUUG [C11A C15U G44U C72A U129A U132C] it is -5.25; for GACCAAUCUGACCUCAGAGCUCGAGAACAUCUUCGGCUGCAGAGGAGGCAGGCCUCGGUGGCGCGAUAGCGCCAACGUCCUCAACCUCCAAUGCAUCCCACCACAUGAUGAUGCCUGAAGAGCCUUGGUUUUUUG [C11A A37C U54C] it is -2.16.
For the variant GACCAAUCUGACCUCAGAGCUCGAGAACAUCUUCGGAUGCAGAGGAGGCAGGCUUCGGUGGCGCGAUAGCGCCAACGUCCUCAACCUCCAAUGCAUCCCACCACAUGAUGAUGCCUGAAGUGCCUUGGUUUUUUG [C11A A121U], the “polymerase ribozyme fitness (log ratio)” value is 0.371.
The figure for GACCAAUCUGAUCUCAGAGCUCGAGAACAUCUUCGGAUGCAGAGGAGGCAGGCUUCGGUGGCGCGAUAGCUCCAACGUCCUCACCCUCCAAUGCAUCCCACCACAUGAUGAUGCCUGAAGAGCCUUGGUUUUUUG [C11A C12U G71U A84C] is -1.73; for GACCAAUCUGACCUCAGAGCUCGAGAACAUCUUCGGAUGCCGAGGAGGCAGGCUUCGAUGGCGCGAUAGCGCCAACGUCCUCAACCUCCAAUGCAACCCACCACAUGAUGAUGCCUGAAGAGCCUUGGUUUUUUG [C11A A41C G58A U96A] it is -3.23.
In the case of GACCAAUCUUCCCUCAGAGCUCGAGAACAUCUUCGGAUGCAGAGGAGGCAGGCUUCGGUGGCGCGAUAGCGCCAACGUCCUCAACCUCCAAUGCAUCCCACCACAUGAUGAGGCCUGAAGAGCCUUGGUUUUUUG [G10U U112G] it was 0.352.
For the variant GACCAAUCUGACCUCAGAGCUCGAGAACAUCUUCGGAUGCUGAGCAGGCAGGCUUCGGUGGCGCGAUAGCGCCAACGUCCUCAACCUCCAAUGCAUCCCACCACAUGAUGAUGCCUGAAGAGCCUUGGUUUUUUG [C11A A41U G45C], the “polymerase ribozyme fitness (log ratio)” value was -3.39.
The figure for GACCAAUCUUCCCUCAGAGCUCGAGAACAUCUUCGGAUGCAGAGGAGGCAGGCUUCGGUGGCGCGAUAGCGCCAACGCCCUCAACCUGCAAUGCAUCCCACCACAUGAUGAUGCCUGAAGAGCCUUGGUUUUUUG [G10U U78C C88G] is -1.13; for GACCAAUCUGACCUCAGAGCUCGAGAACAUCUUCGGAUGCAGAGGCGGCAGGCUUCGGUGUCGCGAUAGCGCCAACGUCCUCAACCUCCAAUGAAUCCCACCACAUGAUGAUGCCUGAAGAGCCUUGGUUUUUUG [C11A A46C G61U C94A] it is -2.34; for GACCAAUCUGACCUCAGUGCUCGAGAACAUCUUCGGAUGCAGAGGAGGCAGGCUUCGGUGGCGCGAUAGCGCCAACGUCCUCAACCUCCAAUGCAUCCCACCACAUGAUGAUGCCUGAAGAGCCUUAGUUUUUUG [C11A A18U G127A] it is -4.94.
Consider GACCAAUCUUCCCUCAGAGCUCGAGAACAUCUUCGGAUGCAGAGGAGGCAGGCUUCGGUGGCGCGAUAGCGCCAACGCCCUCAACCUCCAAUGCAUCCCACCACAUGAUGAUGCCUGAAGAGCCUUGGUUUUUUG [G10U U78C], for which the “polymerase ribozyme fitness (log ratio)” value was -0.395.
As for GACCAAUCUGAACUCAGAGCUCGAGAACAUCUUCGGAUGCAGAGGAGGCAGGCUUCGGUGGCGCGAUAGCACCAACGUCCUCAACCUCGGAUGCAUCCCAUCACAUGAUGAUGCCUGAAGAGCCUUGGUUUUGUG [C11A C12A G71A C89G A90G C101U U133G], the “polymerase ribozyme fitness (log ratio)” value is -4.22.
In the case of GACCAAUCUGAGCUCAGAGUUCGAGAACAUCUUCGGAUGCAGAGGAGGCAGGCUAUGGUGGCGCGAUAGCGCCAACGUCCUCAACCUCCAAUCCAUCCCACCACAUGAUGAUGCCUGAAGAGCCUUGGUUUUUUG [C11A C12G C20U U55A C56U G93C] it was -4.53.

Values taken from the RNAGym collection of RNA variant scans (doi:10.1073/pnas.2313332121).
